Numbering of substitutions follows the chain as printed. Names may count otherwise. One block for each binder: values may come before it.
Legend:
human c-Met on cells [1] = biological target: T1, human c-Met on cells (human, UniProt P08581 25-1390); test: cell-based or functional assay
human c-Met on cells [2] = biological target: T1, human c-Met on cells; test: binding to NCI-H441 cells, anti-His fluorescence
Procedure: Purified FN3 domains (50 μL/well; 0 to 1000 nM) were added to the cells for 1 hour at 4° C. in duplicate plates. […] Cells were incubated with biotinylated-anti HIS antibody (diluted 1:160 in FACS stain buffer, 50 μL/well, R&D Systems, cat # BAM050) for 30 minutes at 4° C. […] Cells were washed three times with FACS stain buffer (150 μL/well) and left in FACS stain buffer (50 μL/well).

human c-Met on cells [3] = biological target: T1, human c-Met on cells; test: cell-based or functional assay; remark: listed apart in the source
human c-Met on cells [4] = biological target: T1, human c-Met on cells; test: cell-based or functional assay; remark: listed apart in the source
[5] = biological target: Recombinant human c-Met Fc chimera (human) (UniProt P08581); test: SPR, serine scan in the ECB15 context

Inhibition of Proliferation of U87-MG cells (IC50) (human c-Met on cells [1]): 17.4 nM
pMet inhibition in H441 cells (IC50) (human c-Met on cells [1]): 9.8 nM
B3: P114AR7P95-B9 (designed binder)
chain: LPAPKNLVVSRVTEDSARLSWTAPDAAFDSFWIRYFEFLGSGEAIVLTVPGSERSYDLTGLKPGTEYVVQILGVKGGSISVPLSAIFTTHHHHHH

Inhibition of Proliferation of U87-MG cells (IC50) (human c-Met on cells [1]): 672 nM
pMet inhibition in H441 cells (IC50) (human c-Met on cells [1]): 766 nM
EC50 (human c-Met on cells [2]): 22 nM
B5: P114AR7P92-H5 (designed binder)
chain: B3 chain with F36L, G40L, S41G, L72M, S78T, I79V, V81P

Inhibition of Proliferation of U87-MG cells (IC50) (human c-Met on cells [1]): 9.3 nM
pMet inhibition in H441 cells (IC50) (human c-Met on cells [1]): 5 nM
EC50 (human c-Met on cells [2]): 1.4 nM
B6: P114AR7P94-A3 (designed binder)
chain: B3 chain with Q70N, L72M, S78K, V81P
notes: also called P114AR7P95-A3; P114ARP94-A3

Inhibition of Proliferation of U87-MG cells (IC50) (human c-Met on cells [1]): 692 nM
pMet inhibition in H441 cells (IC50) (human c-Met on cells [1]): 659 nM
EC50 (human c-Met on cells [2]): 11.3 nM
B7: P114AR7P95-G7 (designed binder)
chain: B3 chain with F38L, G40S, S41T, Q70N, L72M, V81P

Inhibition of Proliferation of U87-MG cells (IC50) (human c-Met on cells [1]): 14.4 nM
pMet inhibition in H441 cells (IC50) (human c-Met on cells [1]): 16 nM
EC50 (human c-Met on cells [2]): 2.3 nM
B10: P114AR7P93-D11 (designed binder)
chain: B3 chain with Q70G, L72N, S78Y, V81Y

Inhibition of Proliferation of U87-MG cells (IC50) (human c-Met on cells [1]): 124 nM
pMet inhibition in H441 cells (IC50) (human c-Met on cells [1]): 155 nM
EC50 (human c-Met on cells [2]): 5.9 nM
B12: P114AR7P92-G8 (designed binder)
chain: B3 chain with W32V, S78Y, V81I

Inhibition of Proliferation of U87-MG cells (IC50) (human c-Met on cells [1]): 464 nM
pMet inhibition in H441 cells (IC50) (human c-Met on cells [1]): 1.08 µM
EC50 (human c-Met on cells [2]): 18.7 nM
IC50 (nM) (ERK phosphorylation) (human c-Met on cells [3]): 2370 nM
inhibition of c-Met phosphorylation in NCI-H292 cells (IC50) (human c-Met on cells [4]): 610 nM
B13: P114AR5P74-A5 (designed binder)
chain: B3 chain with F36D, F38V, L39V, G40V, S41G, V68Y, Q70N

Inhibition of Proliferation of U87-MG cells (IC50) (human c-Met on cells [1]): 19.4 nM
pMet inhibition in H441 cells (IC50) (human c-Met on cells [1]): 19.5 nM
EC50 (human c-Met on cells [2]): 1.4 nM
B14: P114AR7P95-D4 (designed binder)
chain: B3 chain with S78Y, V81I

Inhibition of Proliferation of U87-MG cells (IC50) (human c-Met on cells [1]): 2.7 nM
pMet inhibition in H441 cells (IC50) (human c-Met on cells [1]): 8.3 nM
B16: P114AR7P92-F3 (designed binder)
chain: B3 chain with V68I, Q70N, L72M, V81H

Inhibition of Proliferation of U87-MG cells (IC50) (human c-Met on cells [1]): 270 nM
pMet inhibition in H441 cells (IC50) (human c-Met on cells [1]): 288 nM
EC50 (human c-Met on cells [2]): 12.9 nM
B18: P114AR7P93-H9 (designed binder)
chain: B3 chain with L72I, S78H, V81L

Fold Change of KD against the parent [5]: 4.25 fold
B22: A3 G40S (designed binder)
chain: LPAPKNLVVSEVTEDSARLSWDDPWAFYESFLIQYQESEKVGEAIVLTVPGSERSYDLTGLKPGTEYTVSIYGVHNVYKDTNMRGLPLSAIFTTAPAPAPAPAPLPAPKNLVVSRVTEDSARLSWTAPDAAFDSFWIRYFEFLSSGEAIVLTVPGSERSYDLTGLKPGTEYVVNIMGVKGGKISPPLSAIFTT

Fold Change of KD against the parent [5]: 14.8 fold
B25: A3 N70S (designed binder)
chain: B22 chain with S144G, N174S

Fold Change of KD against the parent [5]: 74.5 fold
B26: A3 W32S (designed binder)
chain: B22 chain with W136S, S144G

Fold Change of KD against the parent [5]: 68 fold
B28: A3 F36S (designed binder)
chain: B22 chain with F140S, S144G

The remaining lines, values behind:

B1: P114AR7P95-D3 (designed binder)
chain: B3 chain with Q70N, L72M, V81Y
Inhibition of Proliferation of U87-MG cells (IC50) (human c-Met on cells [1]): 1.7 nM
pMet inhibition in H441 cells (IC50) (human c-Met on cells [1]): 4.6 nM

B2: P114AR5P75-E9 (designed binder)
chain: B3 chain with W32F, F36D, G40R, V68W, Q70T, S78L, I79V, V81T
Inhibition of Proliferation of U87-MG cells (IC50) (human c-Met on cells [1]): 1190 nM
pMet inhibition in H441 cells (IC50) (human c-Met on cells [1]): 1.42 µM

B4: P114AR7P94-E5 (designed binder)
chain: B3 chain with V68A, Q70N, L72M, S78R, I79V
Inhibition of Proliferation of U87-MG cells (IC50) (human c-Met on cells [1]): 196 nM
pMet inhibition in H441 cells (IC50) (human c-Met on cells [1]): 124 nM
EC50 (human c-Met on cells [2]): 3.4 nM

B8: P114AR7P93-G8 (designed binder)
chain: B3 chain with G60D, V68G, Q70T, L72N, S78R, I79V, V81T
Inhibition of Proliferation of U87-MG cells (IC50) (human c-Met on cells [1]): 104 nM
pMet inhibition in H441 cells (IC50) (human c-Met on cells [1]): 460 nM
EC50 (human c-Met on cells [2]): 3.8 nM

B9: P114AR7P95-F10 (designed binder)
chain: B3 chain with L39T, G40T, S41A, Q70N, L72M, V81P
Inhibition of Proliferation of U87-MG cells (IC50) (human c-Met on cells [1]): 130 nM
pMet inhibition in H441 cells (IC50) (human c-Met on cells [1]): 188 nM
EC50 (human c-Met on cells [2]): 4.4 nM

B11: P114AR7P95-E3 (designed binder)
chain: B3 chain with L72M, S78T, I79V, V81P
Inhibition of Proliferation of U87-MG cells (IC50) (human c-Met on cells [1]): 209 nM
pMet inhibition in H441 cells (IC50) (human c-Met on cells [1]): 205 nM
EC50 (human c-Met on cells [2]): 3.2 nM

B15: P114AR7P92-F6 (designed binder)
chain: B3 chain with Q70N, S78G, I79L
Inhibition of Proliferation of U87-MG cells (IC50) (human c-Met on cells [1]): 350 nM
pMet inhibition in H441 cells (IC50) (human c-Met on cells [1]): 165 nM
EC50 (human c-Met on cells [2]): 4.9 nM

B17: P114AR7P95-H8 (designed binder)
chain: B3 chain with L39V, G40S, S41K, Q70N, L72M, V81P
Inhibition of Proliferation of U87-MG cells (IC50) (human c-Met on cells [1]): 281 nM
pMet inhibition in H441 cells (IC50) (human c-Met on cells [1]): 210 nM
EC50 (human c-Met on cells [2]): 4.1 nM

B19: ECB15 (designed binder, not shown: small tags and cut ends)
chain: MLPAPKNLVVSEVTEDSARLSWDDPWAFYESFLIQYQESEKVGEAIVLTVPGSERSYDLTGLKPGTEYTVSIYGVHNVYKDTNMRGLPLSAIFTTAPAPAPAPAPLPAPKNLVVSRVTEDSARLSWTAPDAAFDSFWIRYFEFLGSGEAIVLTVPGSERSYDLTGLKPGTEYVVNIMGVKGGKISPPLSAIFTT
Fold Change of KD against the parent [5]: 1 fold
Kd [5]: 0.4 nM
koff [5]: 0.000133 s⁻¹
kon [5]: 351000 M⁻¹ s⁻¹

B20: A3 K78S (designed binder)
chain: B22 chain with S144G, K182S
Fold Change of KD against the parent [5]: 0.75 fold

B21: A3 P81S (designed binder)
chain: B22 chain with S144G, P185S
Fold Change of KD against the parent [5]: 4.25 fold

B23: A3 L39S (designed binder)
chain: B22 chain with L143S, S144G
Fold Change of KD against the parent [5]: 6.75 fold

B24: A3 F38S (designed binder)
chain: B22 chain with F142S, S144G
Fold Change of KD against the parent [5]: 1790 fold

B27: A3 V68S (designed binder)
chain: B22 chain with S144G, V172S
Fold Change of KD against the parent [5]: 9 fold
